These results are taken from patent US20100285506A1.

In experiment [1] the target is MPT64 (Mycobacterium tuberculosis). Kind of experiment: CAPILIA TB kit; pretreated patient sputum, sample number 8, smear 3+.
For experiment [2] the target is unchanged. Description: CAPILIA TB kit; pretreated patient sputum, sample number 5, smear 2+.
For experiment [3] the target is unchanged. Description: CAPILIA TB kit; pretreated patient sputum, sample number 1, smear +.
For experiment [4] the target is unchanged. Kind of experiment: CAPILIA TB kit; pretreated patient sputum, sample number 2, smear +.
For experiment [5] the target is unchanged. Description: CAPILIA TB kit; pretreated patient sputum, sample number 4, smear 2+.
The target is the same in experiment [6]. Description: CAPILIA TB kit; pretreated patient sputum, sample number 6, smear 3+.
The target is the same in experiment [7]. Description: CAPILIA TB kit; pretreated patient sputum, sample number 3, smear +.
Experiment [8] has the same target. Kind of experiment: CAPILIA TB kit; pretreated patient sputum, sample number 7, smear 3+.

With “CAPILIA TB (trade name; manufactured by TAUNS LABORATORIES INC.)”, the Absorbance was 23 in experiment [1]; 0 in experiment [2]; 0 in experiment [3]; 0 in experiment [4]; 0 in experiment [5]; 0 in experiment [6]. Moreover, the Absorbance in experiment [7] and in experiment [8] was 0 in each case.
